Results: patent US20190388471A1 (published 2019)
Numbering of substitutions follows the chain as printed.

T1: human CD19 (full length, expressed on cells) (human, UniProt P15391 20-556)
T1 construct: whole, on cells; The functional assays used K562 cells transduced to express CD19; also called hsCD19; hCD19
T1 sequence (looked up): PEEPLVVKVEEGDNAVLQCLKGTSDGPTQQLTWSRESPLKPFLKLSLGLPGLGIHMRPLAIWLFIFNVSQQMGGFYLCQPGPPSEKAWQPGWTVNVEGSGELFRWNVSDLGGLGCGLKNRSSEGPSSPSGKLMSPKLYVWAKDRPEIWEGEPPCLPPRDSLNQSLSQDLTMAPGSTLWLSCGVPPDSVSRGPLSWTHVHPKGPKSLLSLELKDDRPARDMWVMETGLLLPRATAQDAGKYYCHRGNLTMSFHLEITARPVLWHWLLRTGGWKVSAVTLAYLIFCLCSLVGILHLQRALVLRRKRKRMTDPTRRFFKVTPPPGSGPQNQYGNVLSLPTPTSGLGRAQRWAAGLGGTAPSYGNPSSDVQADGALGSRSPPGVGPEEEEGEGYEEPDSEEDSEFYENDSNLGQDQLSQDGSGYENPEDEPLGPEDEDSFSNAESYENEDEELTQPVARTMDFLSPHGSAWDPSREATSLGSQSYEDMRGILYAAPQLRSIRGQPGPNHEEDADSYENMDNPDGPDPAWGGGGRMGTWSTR

B1: 100796 CAR7 Soluble scFv (scFv)
scFv: QVQLQESGPGLVKPSETLSLTCTVSGVSLPDYGVSWIRQPPGKGLEWIGVIWGSETTYYSSSLKSRVTISKDNSKNQVSLKLSSVTAADTAVYYCAKHYYYGGSYAMDYWGQGTLVTVSSGGGGSGGGGSGGGGSGGGGSEIVMTQSPATLSLSPGERATLSCRASQDISKYLNWYQQKPGQAPRLLIYHTSRLHSGIPARFSGSGSGTDYTLTISSLQPEDFAVYFCQQGNTLPYTFGQGTKLEIKHHHHHHHH
notes: also called CAR7 scFv; humanized scFv
B2: 100796 CAR10 Soluble scFv (scFv)
scFv: B1 scFv with S60N
notes: The clone number 100796 is printed for both CAR7 and CAR10; also called CAR10 scFv; humanized scFv
B3: 100798 CAR8 Soluble scFv (scFv)
scFv: B1 scFv with S60Q
notes: also called CAR8 scFv; humanized scFv
B4: 99789 CAR5 Soluble scFv (scFv)
scFv: EIVMTQSPATLSLSPGERATLSCRASQDISKYLNWYQQKPGQAPRLLIYHTSRLHSGIPARFSGSGSGTDYTLTISSLQPEDFAVYFCQQGNTLPYTFGQGTKLEIKGGGGSGGGGSGGGGSGGGGSQVQLQESGPGLVKPSETLSLTCTVSGVSLPDYGVSWIRQPPGKGLEWIGVIWGSETTYYSSSLKSRVTISKDNSKNQVSLKLSSVTAADTAVYYCAKHYYYGGSYAMDYWGQGTLVTVSSHHHHHHHH
notes: also called CAR5 scFv; humanized scFv
B5: 99789 CAR9 Soluble scFv (scFv)
scFv: B4 scFv with S187N
notes: The clone number 99789 is printed for both CAR5 and CAR9; also called CAR9 scFv; humanized scFv
B6: 99790 CAR6 Soluble scFv (scFv)
scFv: B4 scFv with S187Q
notes: also called CAR6 scFv; humanized scFv
B7: 103101 CAR1 Soluble scFv (scFv)
scFv: EIVMTQSPATLSLSPGERATLSCRASQDISKYLNWYQQKPGQAPRLLIYHTSRLHSGIPARFSGSGSGTDYTLTISSLQPEDFAVYFCQQGNTLPYTFGQGTKLEIKGGGGSGGGGSGGGGSQVQLQESGPGLVKPSETLSLTCTVSGVSLPDYGVSWIRQPPGKGLEWIGVIWGSETTYYSSSLKSRVTISKDNSKNQVSLKLSSVTAADTAVYYCAKHYYYGGSYAMDYWGQGTLVTVSSHHHHHHHH
notes: It is built here as scFv domain plus His tag; also called CAR1 scFv; humanized scFv
B8: 103101 CAR11 Soluble scFv (scFv)
scFv: B7 scFv with S182N
notes: The clone number 103101 is printed for both CAR1 and CAR11; also called CAR11 scFv; 103101-WT (S/N)
B9: 103102 CAR2 Soluble scFv (scFv)
scFv: B7 scFv with S182Q
notes: also called CAR2 scFv; humanized scFv
B10: 103104 CAR 3 Soluble scFv (scFv)
scFv: QVQLQESGPGLVKPSETLSLTCTVSGVSLPDYGVSWIRQPPGKGLEWIGVIWGSETTYYSSSLKSRVTISKDNSKNQVSLKLSSVTAADTAVYYCAKHYYYGGSYAMDYWGQGTLVTVSSGGGGSGGGGSGGGGSEIVMTQSPATLSLSPGERATLSCRASQDISKYLNWYQQKPGQAPRLLIYHTSRLHSGIPARFSGSGSGTDYTLTISSLQPEDFAVYFCQQGNTLPYTFGQGTKLEIKHHHHHHHH
notes: also called CAR3 scFv; humanized scFv
B11: 103104 CAR12 Soluble scFv (scFv)
scFv: B10 scFv with S60N
notes: The clone number 103104 is printed for both CAR3 and CAR12; also called CAR12 scFv; humanized scFv
B12: 103106 CAR4 Soluble scFv (scFv)
scFv: B10 scFv with S60Q
notes: also called CAR4 scFv; humanized scFv

Target: T1, human CD19 (full length, expressed on …)
Experiment: flow cytometry; His-tagged soluble scFv on mouse cell line 300 expressing hCD19
Description: Mouse cell line 300.CD19 were grown in RPMI 1640 with 0.5 mg/ml Zeocin. Around 5e5 cells/per well were transferred to the BD Falcon 96 well plate. The cells were spin down at 900 rpm (Sorval Legend XT centrifuge) for 3 minutes. The supernatant were removed. Anti-CD19 scFv protein samples were diluted in DPBS with 5% FBS. The samples were added into the wells, mixed well with the cells and incubated for 1 hour. The cells were washed twice in the DPBS with 5% FBS. The cells were incubated with antipoly His PE (R&D) for 1 hour, washed twice before FACS analysis (LSRII from BD Biosciences).

Binder | binding result
B1 | binds
B2 | binds
B3 | binds
B4 | binds
B5 | binds
B6 | binds
B7 | binds
B8 | binds
B9 | binds
B10 | binds
B11 | binds
B12 | binds
